Results as given in article PMC3563628, “Prevalence, Specificity and Determinants of Lipid-Interacting PDZ Domains from an In-Cell Screen and In Vitro Binding Experiments” (PLoS ONE, 2013).

Key:
[1] = SPR equilibrium binding of his-tagged PDZ domains to PtdIns(4,5)P2 liposomes; conditions: SPR equilibrium analysis, 5% PtdIns(4,5)P2 in DOPC liposomes, 25°C, pH 7.2; read-out: KD app PtdIns(4,5)P2
[2] = SPR equilibrium binding of his-tagged PDZ domains to various PtdInsPs species; conditions: recombinant PDZ domain over PtdInsPs liposomes
[3] = SPR binding to PtdIns(4,5)P2 in composite liposomes mimicking biological membrane; conditions: 30% PC, 20% PS, 40% PE and 5% PtdIns(4,5)P2
Excerpt: (§1) As an alternative in vitro approach we performed lipid blot assays using commercially available membranes pre-spotted with PtdIns, PtdIns4P, PtdIns(4,5)P2 and PtdIns(3,4,5)P3 as well as other abundant lipids (Fig. 4B–C). IL16_3 and PDZD2_3, were excluded from this analysis due to their high binding to the blank immobilized spot. […] Other PtdInsPs-PDZ interactions were confirmed. Discrepancy between SPR and lipid blot approaches can be easily explained by the fact that the latter method is highly koff-dependent. […] We therefore performed SPR experiments with five selected PDZ domains (CASK, DFNB31_1, MAGI1_6, MAGI3_3 and SLC9A3R2_1) and two selected lipids, PS and PE, embedded in DOPC liposomes (10% PS or 40% PE in a DOPC using 100% DOPC as reference). […] We have previously reported that weak electrostatic interactions with PS reinforce the interactions of the second PDZ domain of Polychaetoid with PtdIns(4,5)P2 containing liposomes. We therefore investigated, for the same five PDZ domains, how the apparent PtdIns(4,5)P2 affinities were affected by presenting the lipid in the background of liposomes mimicking biological membrane lipid composition ([…], 20% PS, 40% PE and 5% PtdIns(4,5)P2).
(§2) SPR experiments were performed in a BiacoreT100 (GE Healthcare) at 25°C in 25 mM HEPES, 150 mM NaCl, pH 7.2 and 1 mM beta-mercaptoethanol with a flow rate of 30 µl/min. […]

[4] = SPR binding to PS liposomes; conditions: 10% PS in DOPC, 100% DOPC as reference
Excerpt: as §1, §2

[5] = SPR binding to PE liposomes; conditions: 40% PE in DOPC, 100% DOPC as reference
Excerpt: as §1, §2

[6] = target: C-terminal peptide of usher (FTDTHL); experiment: Equilibrium peptide binding titration followed by intrinsic tryptophan fluorescence; conditions: Y167W mutation introduced as fluorescent probe; protein 3 µM; 25°C, pH 7.2
Excerpt: Given the overall low PtdInsPs specificities, and often modest PtdInsPs affinities, it is unlikely that PtdInsPs bindings alone target the PDZ domains to their defined subcellular compartments. Plausibly, peptide interactions are also involved in controlling the subcellular targeting. To address the interplay between PtdInsPs and peptide-binding we chose DFNB31_1 and CASK as models, taking two of the PDZ domains with well-defined cognate peptides. Cognate peptide ligands were the C-terminal peptides of usher (FTDTHL) for DFNB31_1 [50] and the TKEFYA peptide of syndecan-2 for CASK [51]. We measured the PDZ-peptide affinities by a fluorescence-based approach (Fig. 4E), by engineering Trp into the PDZ scaffolds and following the interactions by changes in intrinsic fluorescence, a strategy previously established for other PDZ domains (KD-values: DFNB31_1/Y167W for FTDTHL 46±6 µM; CASK/I157W for TKEFYA 280±20 µM), [52]. We then determined the apparent PtdIns(4,5)P2 affinities in presence of a (close to) saturating concentration of respective peptide (1 mM). The FTDTHL peptide appeared to compete for DFNB31_1-PtdIns(4,5)P2 interactions (KD ^PtdIns(4,5)P2 in presence of peptide >30 µM, Fig. 4F), which might indicate overlapping binding sites. […] We have previously reported on competitive binding by peptide and PtdIns(4,5)P2 with CASK [13]. However, in these experiments the peptide was linked to sepharose beads and PtdIns(4,5)P2 was present on micelles, which made it more difficult for the PDZ domain to simultaneously interact with the two ligands.
Spectrofluorimetric measurements were performed at 25°C in 25 mM HEPES, 150 mM NaCl, pH 7.2 and 1 mM beta-mercaptoethanol in a Carry Eclipse Spectrofluorimeter (Varian). The peptides corresponded to the C-termini of syndecan-2 (TKEFYA) and usher (FTDTHL) and were of high purity (purity >95%, GeneCust), and the experiment were performed and analyzed as described previously. Urea induced equilibrium unfolding experiments were performed using 1 µM of proteins (excitation 280 nm emission 320–380 nm) and the data fitted by a standard two-state model.

B1: DFNB31_1: recombinant his-tagged first PDZ domain of human DFNB31 (protein)
chain: GEVRLVSLRRAKAHEGLGFSIRGGSEHGVGIYVSLVEPGSLAEKEGLRVGDQILRVNDKSLARVTHAEAVKALKGSKKLVLSVYSAGRI
modifications: left off: His6, N-terminal, state not stated
notes: recombinant his-tagged first PDZ domain of human DFNB31
Kd [1]: 7.8 ± 2 µM
PtdInsPs binding in vitro, in words [2]: high-affinities
Kd [3]: 2.7 ± 1 µM
PS binding, in words [4]: low affinity interactions
PE binding, in words [5]: did not observe any detectable PDZ-PE binding
Kd [6]: 46 ± 6 µM
